Laboratory results taken from the supplement of paper PMC5998384.

What was measured:
[1] = tested on: HeLa Kyoto; assay: solubility change mitosis vs G1/S (difference of NP-40 vs SDS log2 ratios) (log2 ratio difference); higher = more soluble in mitosis
[2] = tested on: HeLa Kyoto; assay: solubility in G1/S (NP-40 vs SDS abundance) (log2 ratio); higher = more soluble; settings: cell cycle stage: G1/S
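Wherever solubility change mitosis vs G1/S (difference of NP-40 vs SDS log2 ratios) is given: synchronized HeLa Kyoto cells (double thymidine block for G1/S, nocodazole release for mitosis), protein amounts in NP-40 versus SDS lysates quantified by mass spectrometry, three biological replicates.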
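Wherever solubility in G1/S (NP-40 vs SDS abundance) is given: HeLa Kyoto cells arrested at G1/S by double thymidine block, proteins quantified by TMT10plex mass spectrometry in mild NP-40 versus SDS extracts, three biological replicates.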

Sequence of WRN (chain, as listed by the source): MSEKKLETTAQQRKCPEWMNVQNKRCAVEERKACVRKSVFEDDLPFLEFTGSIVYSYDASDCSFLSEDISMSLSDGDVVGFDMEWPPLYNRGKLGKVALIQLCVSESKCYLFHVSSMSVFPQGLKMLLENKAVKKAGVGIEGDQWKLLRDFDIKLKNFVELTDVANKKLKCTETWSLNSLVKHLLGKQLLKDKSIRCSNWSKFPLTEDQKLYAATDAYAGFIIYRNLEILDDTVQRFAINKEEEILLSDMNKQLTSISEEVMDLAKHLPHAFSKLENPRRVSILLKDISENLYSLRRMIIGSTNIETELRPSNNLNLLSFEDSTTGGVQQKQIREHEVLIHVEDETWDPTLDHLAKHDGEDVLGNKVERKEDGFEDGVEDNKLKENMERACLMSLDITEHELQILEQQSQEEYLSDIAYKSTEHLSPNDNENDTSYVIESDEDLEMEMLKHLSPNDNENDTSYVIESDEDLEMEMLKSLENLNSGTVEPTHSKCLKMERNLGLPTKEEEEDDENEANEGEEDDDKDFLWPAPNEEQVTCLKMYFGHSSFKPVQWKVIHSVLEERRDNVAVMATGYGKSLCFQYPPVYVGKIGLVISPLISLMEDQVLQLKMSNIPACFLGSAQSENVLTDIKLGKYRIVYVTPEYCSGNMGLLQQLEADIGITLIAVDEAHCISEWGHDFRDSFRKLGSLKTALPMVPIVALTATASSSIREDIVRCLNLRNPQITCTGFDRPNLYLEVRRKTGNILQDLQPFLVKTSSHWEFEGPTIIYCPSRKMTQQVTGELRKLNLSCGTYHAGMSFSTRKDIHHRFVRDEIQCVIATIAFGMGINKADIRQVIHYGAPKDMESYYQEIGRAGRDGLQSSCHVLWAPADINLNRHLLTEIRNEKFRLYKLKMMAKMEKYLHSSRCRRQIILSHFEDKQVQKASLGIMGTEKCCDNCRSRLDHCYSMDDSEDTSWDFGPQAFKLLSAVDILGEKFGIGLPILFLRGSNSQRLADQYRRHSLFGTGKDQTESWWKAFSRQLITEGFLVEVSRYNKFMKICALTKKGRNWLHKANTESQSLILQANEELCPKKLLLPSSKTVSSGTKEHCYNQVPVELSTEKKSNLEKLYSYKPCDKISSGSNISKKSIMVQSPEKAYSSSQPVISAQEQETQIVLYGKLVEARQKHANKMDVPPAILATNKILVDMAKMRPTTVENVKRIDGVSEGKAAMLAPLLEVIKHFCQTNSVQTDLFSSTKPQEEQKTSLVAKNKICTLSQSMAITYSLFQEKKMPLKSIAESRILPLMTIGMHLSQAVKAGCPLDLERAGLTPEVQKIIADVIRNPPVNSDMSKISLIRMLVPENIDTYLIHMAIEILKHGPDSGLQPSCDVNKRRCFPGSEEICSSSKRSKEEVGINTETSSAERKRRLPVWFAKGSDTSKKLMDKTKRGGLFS

| Substance | solubility change mitosis (log2) [1] | solubility in G1/S (log2) [2] |
| --- | --- | --- |
| MDRDLLRQSLNCHGSSLLSLLRSEQQDNPHFRSLLGSAAEPARGPPPQHPLQGRKEKRVDNIEIQKFISKKADLLFALSWKSDAPATSEINEDSEDHYAIMPPLEQFMEIPSMDRRELFFRDIERGDIVIGRISSIREFGFFMVLICLGSGIMRDIAHLEITALCPLRDVPSHSNHGDPLSYYQTGDIIRAGIKDIDRYHEKLAVSLYSSSLPPHLSGIKLGVISSEELPLYYRRSVELNSNSLESYENVMQSSLGFVNPGVVEFLLEKLGIDESNPPSLMRGLQSKNFSEDDFASALRKKQSASWALKCVKIGVDYFKVGRHVDAMNEYNKALEIDKQNVEALVARGALYATKGSLNKAIEDFELALENCPTHRNARKYLCQTLVERGGQLEEEEKFLNAESYYKKALALDETFKDAEDALQKLHKYMQKSLELREKQAEKEEKQKTKKIETSAEKLRKLLKEEKRLKKKRRKSTSSSSVSSADESVSSSSSSSSSGHKRHKKHKRNRSESSRSSRRHSSRASSNQIDQNRKDECYPVPANTSASFLNHKQEVEKLLGKQDRLQYEKTQIKEKDRCPLSSSSLEIPDDFGGRSEDPRDFYNSYKTQAGSSKTEKPYKSERHFSSRRNSSDSFCRNSEDKIYGYRRFEKDIEGRKEHYRRWEPGSVRHSTSPASSEYSWKSVEKYKKYAHSGSRDFSRHEQRYRLNTNQGEYEREDNYGEDIKTEVPEEDALSSKEHSESSVKKNLPQNLLNIFNQIAEFEKEKGNKSKN [TTC14] | 0.329 | -0.392 |
| MNKNTSTVVSPSLLEKDPAFQMITIAKETGLGLKVLGGINRNEGPLVYIQEIIPGGDCYKDGRLKPGDQLVSVNKESMIGVSFEEAKSIITGAKLRLESAWEIAFIRQKSDNIQPENLSCTSLIEASGEYGPQASTLSLFSSPPEILIPKTSSTPKTNNDILSSCEIKTGYNKTVQIPITSENSTVGLSNTDVASAWTENYGLQEKISLNPSVRFKAEKLEMALNYLGIQPTKEQHQALRQQVQADSKGTVSFGDFVQVARNLFCLQLDEVNVGAHEISNILDSQLLPCDSSEADEMERLKCERDDALKEVNTLKEKLLESDKQRKQLTEELQNVKQEAKAVVEETRALRSRIHLAEAAQRQAHGMEMDYEEVIRLLEAKITELKAQLADYSDQNKESVQDLKKRIMVLDCQLRKSEMARKTFEASTEKLLHFVEAIQEVFSDNSTPLSNLSERRAVLASQTSLTPLGRNGRSIPATLALESKELVKSVRALLDMDCLPYGWEEAYTADGIKYFINHVTQTTSWIHPVMSVLNLSRSEENEEDCSRELPNQKS [STXBP4] | -0.138 | 0.308 |
| MSANEDQEMELEALRSIYEGDESFRELSPVSFQYRIGENGDPKAFLIEISWTETYPQTPPILSMNAFFNNTISSAVKQSILAKLQEAVEANLGTAMTYTLFEYAKDNKEQFMENHNPINSATSISNIISIETPNTAPSSKKKDKKEQLSKAQKRKLADKTDHKGELPRGWNWVDVVKHLSKTGSKDDE [RWDD4] | 0.301 | 0.234 |
| MGETKIIYHLDGQETPYLVKLPLPAERVTLADFKGVLQRPSYKFFFKSMDDDFGVVKEEISDDNAKLPCFNGRVVSWLVSAEGSHPDPAPFCADNPSELPPPMERTGGIGDSRPPSFHPHAGGGSQENLDNDTETDSLVSAQRERPRRRDGPEHATRLNGTAKGERRREPGGYDSSSTLMSSELETTSFFDSDEDDSTSRFSSSTEQSSASRLMRRHKRRRRKQKVSRIERSSSFSSITDSTMSLNIITVTLNMEKYNFLGISIVGQSNERGDGGIYIGSIMKGGAVAADGRIEPGDMLLQVNEINFENMSNDDAVRVLREIVHKPGPITLTVAKCWDPSPRGCFTLPRSEPIRPIDPAAWVSHTAAMTGTFPAYGMSPSLSTITSTSSSITSSIPDTERLDDFHLSIHSDMAAIVKAMASPESGLEVRDRMWLKITIPNAFIGSDVVDWLYHNVEGFTDRREARKYASNLLKAGFIRHTVNKITFSEQCYYIFGDLCGNMANLSLHDHDGSSGASDQDTLAPLPHPGAAPWPMAFPYQYPPPPHPYNPHPGFPELGYSYGGGSASSQHSEGSRSSGSNRSGSDRRKEKDPKAGDSKSGGSGSESDHTTRSSLRGPRERAPSERSGPAASEHSHRSHHSLASSLRSHHTHPSYGPPGVPPLYGPPMLMMPPPPAAMGPPGAPPGRDLASVPPELTASRQSFRMAMGNPSEFFVDVM [DVL3] | -0.17 | -0.0796 |
| MGRGLLRGLWPLHIVLWTRIASTIPPHVQKSVNNDMIVTDNNGAVKFPQLCKFCDVRFSTCDNQKSCMSNCSITSICEKPQEVCVAVWRKNDENITLETVCHDPKLPYHDFILEDAASPKCIMKEKKKPGETFFMCSCSSDECNDNIIFSEEYNTSNPDLLLVIFQVTGISLLPPLGVAISVIIIFYCYRVNRQQKLSSTWETGKTRKLMEFSEHCAIILEDDRSDISSTCANNINHNTELLPIELDTLVGKGRFAEVYKAKLKQNTSEQFETVAVKIFPYEEYASWKTEKDIFSDINLKHENILQFLTAEERKTELGKQYWLITAFHAKGNLQEYLTRHVISWEDLRKLGSSLARGIAHLHSDHTPCGRPKMPIVHRDLKSSNILVKNDLTCCLCDFGLSLRLDPTLSVDDLANSGQVGTARYMAPEVLESRMNLENVESFKQTDVYSMALVLWEMTSRCNAVGEVKDYEPPFGSKVREHPCVESMKDNVLRDRGRPEIPSFWLNHQGIQMVCETLTECWDHDPEARLTAQCVAERFSELEHLDRLSGRSCSEEKIPEDGSLNTTK [TGFBR2] | -0.067 | -0.228 |
| WRN | 0.124 | -0.339 |
| MNYPGRGSPRSPEHNGRGGGGGAWELGSDARPAFGGGVCCFEHLPGGDPDDGDVPLALLRGEPGLHLAPGTDDHNHHLALDPCLSDENYDFSSAESGSSLRYYSEGESGGGGSSLSLHPPQQPPLVPTNSGGGGATGGSPGERKRTRLGGPAARHRYEVVTELGPEEVRWFYKEDKKTWKPFIGYDSLRIELAFRTLLQTTGARPQGGDRDGDHVCSPTGPASSSGEDDDEDRACGFCQSTTGHEPEMVELVNIEPVCVRGGLYEVDVTQGECYPVYWNQADKIPVMRGQWFIDGTWQPLEEEESNLIEQEHLNCFRGQQMQENFDIEVSKSIDGKDAVHSFKLSRNHVDWHSVDEVYLYSDATTSKIARTVTQKLGFSKASSSGTRLHRGYVEEATLEDKPSQTTHIVFVVHGIGQKMDQGRIIKNTAMMREAARKIEERHFSNHATHVEFLPVEWRSKLTLDGDTVDSITPDKVRGLRDMLNSSAMDIMYYTSPLYRDELVKGLQQELNRLYSLFCSRNPDFEEKGGKVSIVSHSLGCVITYDIMTGWNPVRLYEQLLQKEEELPDERWMSYEERHLLDELYITKRRLKEIEERLHGLKASSMTQTPALKFKVENFFCMGSPLAVFLALRGIRPGNTGSQDHILPREICNRLLNIFHPTDPVAYRLEPLILKHYSNISPVQIHWYNTSNPLPYEHMKPSFLNPAKEPTSVSENEGISTIPSPVTSPVLSRRHYGESITNIGKASILGAASIGKGLGGMLFSRFGRSSTTQSSETSKDSMEDEKKPVASPSATTVGTQTLPHSSSGFLDSAYFRLQESFFNLPQLLFPENVMQNKDNALVELDHRIDFELREGLVESRYWSAVTSHTAYWSSLDVALFLLTFMYKHEHDDDAKPNLDPI [DDHD1] | 0.134 | -0.175 |
| MCDQQQIQCRLPLQQCCVKGPSFCSSQSPFAQSQVVVQAPCEMQIVDCPASCPVQVCQVSDQAPCQSQTTQVKCQSKTKQVKGQAQCQSKTTQVKGQAASQSQTSSVQSQAPCQSEVSYVQCEASQPVQTCFVECAPVCYTETCYVECPVQNYVPCPAPQPVQMYRGRPAVCQPQGRFSTQCQYQGSYSSCGPQFQSRATCNNYTPQFQLRPSYSSCFPQYRSRTSFSPCVPQCQTQGSYGSFTEQHRSRSTSRCLPPPRRLQLFPRSCSPPRRFEPCSSSYLPLRPSEGFPNYCTPPRRSEPIYNSRCPRRPISSCSQRRGPKCRIEISSPCCPRQVPPQRCPVEIPPIRRRSQSCGPQPSWGASCPELRPHVEPRPLPSFCPPRRLDQCPESPLQRCPPPAPRPRLRPEPCISLEPRPRPLPRQLSEPCLYPEPLPALRPTPRPVPLPRPGQCEIPEPRPCLQPCEHPEPCPRPEPIPLPAPCPSPEPCRETWRSPSPCWGPNPVPYPGDLGCHESSPHRLDTEAPYCGPSSYNQGQESGAGCGPGDVFPERRGQDGHGDQGNAFAGVKGEAKSAYF [KPRP] | 1.12 | -1.06 |
| MTSVTRSEIIDEKGPVMSKTHDHQLESSLSPVEVFAKTSASLEMNQGVSEERIHLGSSPKKGGNCDLSHQERLQSKSLHLSPQEQSASYQDRRQSWRRASMKETNRRKSLHPIHQGITELSRSISVDLAESKRLGCLLLSSFQFSIQKLEPFLRDTKGFSLESFRAKASSLSEELKHFADGLETDGTLQKCFEDSNGKASDFSLEASVAEMKEYITKFSLERQTWDQLLLHYQQEAKEILSRGSTEAKITEVKVEPMTYLGSSQNEVLNTKPDYQKILQNQSKVFDCMELVMDELQGSVKQLQAFMDESTQCFQKVSVQLGKRSMQQLDPSPARKLLKLQLQNPPAIHGSGSGSCQ [DSN1] | -0.12 | 0.0805 |
| MAASLWMGDLEPYMDENFISRAFATMGETVMSVKIIRNRLTGIPAGYCFVEFADLATAEKCLHKINGKPLPGATPAKRFKLNYATYGKQPDNSPEYSLFVGDLTPDVDDGMLYEFFVKVYPSCRGGKVVLDQTGVSKGYGFVKFTDELEQKRALTECQGAVGLGSKPVRLSVAIPKASRVKPVEYSQMYSYSYNQYYQQYQNYYAQWGYDQNTGSYSYSYPQYGYTQSTMQTYEEVGDDALEDPMPQLDVTEANKEFMEQSEELYDALMDCHWQPLDTVSSEIPAMM [TRNAU1AP] | -0.0623 | 0.0945 |
| MSELSDEASEPELLNRSLSMWHGLGTQVSGEELDVPLDLHTAASIGQYEVVKECVQRRELDLNKKNGGGWTPLMYASYIGHDTIVHLLLEAGVSVNVPTPEGQTPLMLASSCGNESIAYFLLQQGAELEMKDIQGWTALFHCTSAGHQHMVRFLLDSGANANVREPICGFTPLMEAAAAGHEIIVQYFLNHGVKVDARDHSGATARMLAKQYGHMKIVALMDTYSPSLPKSLYRSPEKYEDLSSSDESCPAPQRQRPCRKKGVSIHEGPRALARITGIGLGGRAPRPRYEQAPPRGYVTFNSSGENPLEEEGLCCRDVTSPINERDVESSSSSSSREEHAFCANLGPVQSSSSSEGLARAQGLSSEASVESNEDSDHACKSSARKQAKSYMKTKNPDSQWPPRAATDREGFLAESSPQTQRAPYSGPQDLAALLEQIGCLKYLQVFEEQDVDLRIFLTLTESDLKEIGITLFGPKRKMTSAIARWHSSARPPGDALELAYADRLEAEMQELAIQLHKRCEEVEATRGQVCQEQELRAVVESCLLEQDRAREDLQARLRETWALARDAALVLDQLRACQAELSSRVRQDQPPGAATLGLAVPPADSKGWQASLQAMSLPELSGALEDRVREMGQALCLVTQSLEKLQVLNGKKWRET [ANKS3] | 0.0304 | -0.0739 |
| MENLMTSSTLPPLFADEDGSKESNDLATTGLNHPEVPYSSGATSSTNNPEFVEDLSQGQLLQSESSNAAEGNEQRHEDEQRSKRGGWSKGRKRKKPLRDSNAPKSPLTGYVRFMNERREQLRAKRPEVPFPEITRMLGNEWSKLPPEEKQRYLDEADRDKERYMKELEQYQKTEAYKVFSRKTQDRQKGKSHRQDAARQATHDHEKETEVKERSVFDIPIFTEEFLNHSKAREAELRQLRKSNMEFEERNAALQKHVESMRTAVEKLEVDVIQERSRNTVLQQHLETLRQVLTSSFASMPLPGSGETPTVDTIDSYMNRLHSIILANPQDNENFIATVREVVNRLDR [HMG20A] | 0.298 | -0.0378 |
